The target of the data set is T1, E. coli type II fatty acid synthase ACP (AcpP), P0A6A8.
T1 chain: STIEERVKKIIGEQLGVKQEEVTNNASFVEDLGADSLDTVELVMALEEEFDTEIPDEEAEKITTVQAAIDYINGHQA

B1: 4'-phosphopantetheinyl transferase Sfp from Bacillus subtilis (protein)
chain: MKIYGIYMDRPLSQEENERFMSFISPEKREKCRRFYHKEDAHRTLLGDVLVRSVISRQYQLDKSDIRFSTQEYGKPCIPDLPDAHFNISHSGRWVICAFDSQPIGIDIEKTKPISLEIAKRFFSKTEYSDLLAKDKDEQTDYFYHLWSMKESFIKQEGKGLSLPLDSFSVRLHQDGQVSIELPDSHSPCYIKTYEVDPGYKMAVCAAHPDFPEDITMVSYEELL
Turning to B1, the “ACP phosphopantetheinylation with fluorescently labeled CoA (TAMRA-CoA), SDS-PAGE, UV fluorescence” value is recorded as “protein extracts from all the recombinant cyanobacteria strains constructed here allowed the conversion of E. coli ACP to its fluorescently labeled derivative”.

The values are drawn from patent US20200332324.
